Data reported in patent US20150098990A1.

Legend:
[1] = target: mouse dorsal root ganglion (DRG) neurons (surface proteins that the peptides bind are not identified) (mouse (C57BL/6)); experiment: phage binding to cultured DRG neurons, anti-fd immunostaining, confocal microscopy
[2] = target: mouse dorsal root ganglion (DRG) neurons (surface proteins that the peptides bind are not identified) (mouse (C57BL/6)); experiment: double staining of isolated DRG neurons incubated with DRG-p1 and GST-DRG3, antibodies against phage and GST
[3] = target: mouse dorsal root ganglion (DRG) neurons (surface proteins that the peptides bind are not identified) (mouse (C57BL/6)); experiment: synthetic peptide DRG2 at 10^-6 M; competitor phage DRG-p2 on cultured DRG neurons, anti-fd immunostaining
[4] = target: mouse dorsal root ganglion (DRG) neurons (surface proteins that the peptides bind are not identified) (mouse (C57BL/6)); experiment: synthetic peptide DRG2 at 10^-4 M; competitor phage DRG-p2 on cultured DRG neurons, anti-fd immunostaining
[5] = target: mouse dorsal root ganglion (DRG) neurons (surface proteins that the peptides bind are not identified) (mouse (C57BL/6)); experiment: synthetic peptide DRG1 at 10^-4 M; competitor phage DRG-p1 on cultured DRG neurons, anti-fd immunostaining
[6] = target: mouse dorsal root ganglion (DRG) neurons (surface proteins that the peptides bind are not identified) (mouse (C57BL/6)); experiment: synthetic peptide DRG1 at 10^-6 M; competitor phage DRG-p1 on cultured DRG neurons, anti-fd immunostaining
[7] = target: mouse dorsal root ganglion (DRG) neurons (surface proteins that the peptides bind are not identified) (mouse (C57BL/6)); experiment: synthetic peptide DRG3 at 10^-4 M; competitor phage DRG-p3 on cultured DRG neurons, anti-fd immunostaining
[8] = target: mouse dorsal root ganglion (DRG) neurons (surface proteins that the peptides bind are not identified) (mouse (C57BL/6)); experiment: synthetic peptide DRG3 at 10^-6 M; competitor phage DRG-p3 on cultured DRG neurons, anti-fd immunostaining

Question: For “phage clone DRG-p3 (M13 phage displaying the DRG3 peptide FGQKASS on pIII)”, which percent of DRG neurons bound [1] is on record?
Answer: Its percent of DRG neurons bound is 29%.

Question: “phage clone DRG-p2 (M13 phage displaying the DRG2 peptide DGPWRKM on pIII)” was tested. Which percent of DRG neurons bound [1] did it give?
Answer: Its percent of DRG neurons bound is 43%.

Question: What does the source list for “phage clone DRG-p1 (M13 phage displaying the DRG1 peptide SPGARAF on pIII)”?
Answer: percent of DRG neurons bound [1]: 38%; percent of GST-DRG3-positive neurons with double positive staining [2]: 71%

Question: What does the source list for DGPWRKM [synthetic peptide DRG2: DGPWRKM]?
Answer: percent of anti-phage staining blocked [3]: 54%; percent of anti-phage staining blocked [4]: 94%

Question: SPGARAF [synthetic peptide DRG1: SPGARAF] was tested. Which percent of anti-phage staining blocked [5] did it give?
Answer: The percent of anti-phage staining blocked was 97%.

Question: What about the percent of anti-phage staining blocked [6] of the same molecule?
Answer: Its percent of anti-phage staining blocked is 47%.

Question: How did the percent of anti-phage staining blocked [7] turn out when FGQKASS [synthetic peptide DRG3: FGQKASS] was run?
Answer: Its percent of anti-phage staining blocked is 94%.

Question: And the percent of anti-phage staining blocked [8]?
Answer: The percent of anti-phage staining blocked was 53%.
